These results are taken from patent US20050282743A1, “Molecular interactions in cells” (Arbor Vita Corporation, priority 2001, published 2005).

For orientation: Kd means the concentration at which binding is half-saturated. A high value points to lower affinity.

Assay [1] has as its target GST-KIAA1634 PDZ domain 1 (Homo sapiens (Human)), Q5TCQ9. The assay can be described thus: G assay titration, PDZ 1 ug/ml.
For assay [2], the target named is T1, GST-Shank 1 PDZ domain 1 (Homo sapiens (Human)), Q9UPX8.
T1 chain: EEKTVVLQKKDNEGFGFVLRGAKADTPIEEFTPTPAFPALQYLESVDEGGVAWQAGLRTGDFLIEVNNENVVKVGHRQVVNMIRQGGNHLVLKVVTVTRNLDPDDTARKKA
The assay can be described thus: G assay titration, PDZ 5 ug/ml.

For assay [3], the target named is T2, GST-Atrophin-1 Interacting Protein PDZ domain 1 (Rattus norvegicus (Rat)), O88382. As to the kind of experiment: G assay titration, PDZ 5 ug/ml.
Assay [4] concerns the target GST-KIAA1634 PDZ domain 1 (Homo sapiens (Human)), Q5TCQ9. The assay can be described thus: G' assay. Also: key of the grades not given here.
The target in assay [5] is T3, GST-ZO-1 PDZ domain 1 (Rattus norvegicus (Rat)), A0A0G2.
T3 chain: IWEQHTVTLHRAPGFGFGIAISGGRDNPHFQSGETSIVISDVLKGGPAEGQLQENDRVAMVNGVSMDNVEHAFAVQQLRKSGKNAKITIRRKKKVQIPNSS
The assay can be described thus: G' assay. Also: key of the grades not given here.

Assay [6] has as its target T4, GST-PTPL1 PDZ domain 4 (Homo sapiens (Human)), Q12923.
T4 chain: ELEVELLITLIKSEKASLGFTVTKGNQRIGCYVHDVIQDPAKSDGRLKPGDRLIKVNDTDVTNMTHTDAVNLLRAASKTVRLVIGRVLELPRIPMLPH
As to the kind of experiment: G' assay. Also: key of the grades not given here.

In assay [7] the target is T5, GST-NeDLG PDZ domains 1, 2, Q92796.
T5 chain: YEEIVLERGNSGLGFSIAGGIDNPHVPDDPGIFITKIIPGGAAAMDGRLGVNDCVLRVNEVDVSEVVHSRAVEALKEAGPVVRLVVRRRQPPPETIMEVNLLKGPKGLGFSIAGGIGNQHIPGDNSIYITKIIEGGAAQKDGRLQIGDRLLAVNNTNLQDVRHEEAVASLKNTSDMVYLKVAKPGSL
As to the kind of experiment: G' assay. Also: key of the grades not given here.

In assay [8] the target is GST-PSD95 PDZ domains 1, 2, 3 (Homo sapiens), P78352. The assay can be described thus: G' assay. Also: key of the grades not given here.
In assay [9] the target is T6, GST-FLJ 10324 PDZ domain 1 [GST: P08515].
T6 chain: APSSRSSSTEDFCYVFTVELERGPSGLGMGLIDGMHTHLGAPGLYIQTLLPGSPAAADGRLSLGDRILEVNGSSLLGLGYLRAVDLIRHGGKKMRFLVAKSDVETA
As to the kind of experiment: G' assay. Also: key of the grades not given here.

Assay [10] deals with GST-KIAA807 [GST: P08515]. As to the kind of experiment: G' assay. Also: key of the grades not given here.
Assay [11] has as its target T7, GST-EZRIN Binding Protein 50 PDZ domain 2 (Homo sapiens (Human)), O14745.
T7 chain: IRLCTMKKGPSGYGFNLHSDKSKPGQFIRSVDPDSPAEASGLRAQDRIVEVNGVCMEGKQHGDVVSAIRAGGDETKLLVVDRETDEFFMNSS
The assay can be described thus: G' assay. Also: key of the grades not given here.

Assay [12] deals with T8, GST-TIP1 PDZ domain 1 (Table 9 insert) (Homo sapiens (Human)), O14907.
T8 chain: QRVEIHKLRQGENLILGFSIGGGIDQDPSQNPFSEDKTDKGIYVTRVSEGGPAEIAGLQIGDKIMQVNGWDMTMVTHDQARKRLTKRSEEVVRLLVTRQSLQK
As to the kind of experiment: G' assay.

Assay [13] has as its target T9, GST-NOS1 PDZ domain 1 (Homo sapiens (Human)), P29475.
T9 chain: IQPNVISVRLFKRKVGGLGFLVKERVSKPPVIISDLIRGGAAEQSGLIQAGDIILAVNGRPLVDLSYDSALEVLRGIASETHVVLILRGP
The assay can be described thus: G' assay. The note with it: remark: other sources report otherwise.

The target in assay [14] is T1, GST-Shank 1 PDZ domain 1 (Homo sapiens …). As to the kind of experiment: G' assay.
The target of assay [15] is T10, GST-PTPL1 PDZ domain 2 (Homo sapiens (Human)), Q12923.
T10 chain: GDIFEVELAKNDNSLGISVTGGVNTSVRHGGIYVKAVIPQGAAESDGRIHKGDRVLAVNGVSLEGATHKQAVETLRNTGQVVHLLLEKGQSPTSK
The assay can be described thus: G' assay.

Assay [16] has as its target T11, GST-INADL PDZ domain 8 (Homo sapiens (Human)), Q8NI35.
T11 chain: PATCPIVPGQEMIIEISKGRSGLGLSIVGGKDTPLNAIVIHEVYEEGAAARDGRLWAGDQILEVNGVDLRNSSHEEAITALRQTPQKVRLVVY
As to the kind of experiment: G' assay.

In assay [17] the target is T12, GST-KIAA0807(S) PDZ domain 1 (Homo sapiens (Human)), Q6P0Q8.
T12 chain: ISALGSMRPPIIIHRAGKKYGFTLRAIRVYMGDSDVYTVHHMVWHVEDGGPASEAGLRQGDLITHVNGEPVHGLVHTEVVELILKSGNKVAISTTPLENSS
The assay can be described thus: G' assay.

In assay [18] the target is T13, GST-NeDLG PDZ domain 3 (Mus musculus (Mouse)), P70175.
T13 chain: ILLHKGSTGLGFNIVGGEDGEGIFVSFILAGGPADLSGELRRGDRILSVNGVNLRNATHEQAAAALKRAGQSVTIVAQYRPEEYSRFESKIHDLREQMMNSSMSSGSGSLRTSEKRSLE
As to the kind of experiment: G' assay.

Assay [19] concerns the target T14, GST-MINT1 PDZ domains 1, 2, Q02410.
T14 chain: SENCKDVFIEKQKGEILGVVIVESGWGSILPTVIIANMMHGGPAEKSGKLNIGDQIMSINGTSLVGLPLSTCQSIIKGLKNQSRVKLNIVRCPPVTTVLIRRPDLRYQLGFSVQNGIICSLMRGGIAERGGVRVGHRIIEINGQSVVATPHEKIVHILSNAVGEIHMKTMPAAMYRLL
As to the kind of experiment: G' assay.

Assay [20] deals with T15, GST-KIAA1634 PDZ domain 2 (Homo sapiens (Human)), Q5TCQ9.
T15 chain: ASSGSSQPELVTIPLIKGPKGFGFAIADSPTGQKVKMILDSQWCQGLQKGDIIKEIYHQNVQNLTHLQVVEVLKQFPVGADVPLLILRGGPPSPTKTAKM
The assay can be described thus: G' assay.

Assay [21] addresses T16, GST-EZRIN Binding Protein 50 PDZ domain 1 (Homo sapiens (Human)), O14745.
T16 chain: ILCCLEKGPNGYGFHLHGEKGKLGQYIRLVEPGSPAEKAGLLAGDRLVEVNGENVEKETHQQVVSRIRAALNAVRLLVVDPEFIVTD
As to the kind of experiment: G' assay.

Assay [22] concerns the target T2, GST-Atrophin-1 Interacting Protein PDZ …. As to the kind of experiment: G' assay.
The target of assay [23] is GST-DLG1 PDZ domains 1, 2 (Homo sapiens), Q12959. As to the kind of experiment: G' assay. Also: key of the grades not given here.
Assay [24] has as its target T17, GST-Shank 3 PDZ domain 1 (human (hypothetical, computer cloned)), Q9BYB0.
T17 chain: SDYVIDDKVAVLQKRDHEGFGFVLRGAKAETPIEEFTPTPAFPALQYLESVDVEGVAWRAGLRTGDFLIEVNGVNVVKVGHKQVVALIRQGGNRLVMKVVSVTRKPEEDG
As to the kind of experiment: G' assay.

Assay [25] deals with T10, GST-PTPL1 PDZ domain 2 (Homo sapiens …). The assay can be described thus: G assay titration, PDZ 0.5 ug/ml.
The target in assay [26] is T18, GST-BAI-1 Associated Protein PDZ domain 3 (Homo sapiens (Human)), Q96QZ7. As to the kind of experiment: G assay titration, PDZ 0.5 ug/ml.
For assay [27], the target named is GST-PIST PDZ domain 1 (Mus musculus (Mouse)), Q8BH60. The assay can be described thus: G' assay. Also: key of the grades not given here.
Assay [28] concerns the target GST-KIAA0316 PDZ domain 1 (Homo sapiens (Human)), Q14CM0. As to the kind of experiment: G' assay. Also: key of the grades not given here.
For assay [29], the target named is T18, GST-BAI-1 Associated Protein PDZ domain …. As to the kind of experiment: G' assay.
In assay [30] the target is T19, GST-HEMBA 1003117 PDZ domain 1 (Homo sapiens (Human)), Q96JH8.
T19 chain: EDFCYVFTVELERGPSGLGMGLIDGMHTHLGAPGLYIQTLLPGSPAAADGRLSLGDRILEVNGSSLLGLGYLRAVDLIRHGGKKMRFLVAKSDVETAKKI
The assay can be described thus: G' assay.

The target of assay [31] is T20, GST-MINT1 PDZ domain 2 (Mus musculus (Mouse)), B2RUJ5.
T20 chain: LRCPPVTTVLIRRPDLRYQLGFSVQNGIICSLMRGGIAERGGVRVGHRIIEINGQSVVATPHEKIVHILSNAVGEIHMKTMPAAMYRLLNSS
The assay can be described thus: G' assay.

Assay [32] deals with GST-PSD95 PDZ domains 1, 2, 3 (Homo sapiens), P78352. As to the kind of experiment: G assay competition vs 10 uM biotin-CD95 20-mer; competitor 50 uM.
Assay [33] shares this target. The assay can be described thus: G assay competition vs 20 uM biotin-CLASP-2 20-mer; competitor 50 uM.
For assay [34] the target is unchanged. The assay can be described thus: G assay competition vs 10 uM biotin-KV1.3 20-mer; competitor 50 uM.
For assay [35] the target is unchanged. As to the kind of experiment: G assay competition vs 20 uM biotin-CD46 20-mer; competitor 50 uM.

Sequence of GST-PSD95 PDZ domains 1, 2, 3 (Homo sapiens), P78352 (P78352 62-395): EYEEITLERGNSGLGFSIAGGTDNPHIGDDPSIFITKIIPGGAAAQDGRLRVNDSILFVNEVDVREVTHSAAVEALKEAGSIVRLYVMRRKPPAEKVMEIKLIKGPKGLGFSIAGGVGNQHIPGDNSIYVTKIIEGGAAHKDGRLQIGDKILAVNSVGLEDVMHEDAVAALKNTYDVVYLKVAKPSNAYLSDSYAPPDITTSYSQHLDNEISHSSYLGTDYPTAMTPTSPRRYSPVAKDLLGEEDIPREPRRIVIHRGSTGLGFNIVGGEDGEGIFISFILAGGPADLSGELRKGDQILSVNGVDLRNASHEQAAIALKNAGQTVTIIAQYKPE
Sequence of GST-KIAA1634 PDZ domain 1 (Homo sapiens (Human)), Q5TCQ9 (Q5TCQ9 401-502): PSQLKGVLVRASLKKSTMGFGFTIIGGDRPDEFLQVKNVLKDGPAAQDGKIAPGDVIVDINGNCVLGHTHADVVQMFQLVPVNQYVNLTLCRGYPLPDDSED
T18 sequence (Q96QZ7 other isoform, or with tags, fused parts or gaps): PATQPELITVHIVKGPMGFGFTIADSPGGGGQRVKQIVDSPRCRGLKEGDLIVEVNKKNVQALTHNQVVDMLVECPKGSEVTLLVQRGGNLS
T2 sequence (O88382 408-511): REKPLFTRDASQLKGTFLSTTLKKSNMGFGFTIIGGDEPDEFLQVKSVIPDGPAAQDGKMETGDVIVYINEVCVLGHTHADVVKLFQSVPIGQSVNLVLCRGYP
Sequence of GST-KIAA807 [GST: P08515] (P08515 whole entry, the tested form may be a part): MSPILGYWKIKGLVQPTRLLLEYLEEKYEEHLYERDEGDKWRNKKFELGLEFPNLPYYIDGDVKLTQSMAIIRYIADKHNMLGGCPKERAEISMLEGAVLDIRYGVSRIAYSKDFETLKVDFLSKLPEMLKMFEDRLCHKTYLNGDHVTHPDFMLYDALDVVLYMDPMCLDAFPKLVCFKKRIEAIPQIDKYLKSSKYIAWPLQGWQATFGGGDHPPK
Sequence of GST-KIAA0316 PDZ domain 1 (Homo sapiens (Human)), Q14CM0 (Q14CM0 72-159): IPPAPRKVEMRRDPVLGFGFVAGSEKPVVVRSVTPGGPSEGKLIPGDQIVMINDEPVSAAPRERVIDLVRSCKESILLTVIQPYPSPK

B1: Neuroligin (peptide)
peptide: TFAAGFNSTGLPHSTTRV
modifications: not checked
As to B1, the Kd came to 100 nM in [1], 300 nM in [2] and 250 nM in assay [3]. Besides, the Classification worked out at 4 A450 class in [4]; 1 A450 class in [5]; 1 A450 class in [6]; 1 A450 class in [7]; 2 A450 class in [8]; 1 A450 class in assay [9]. Besides, the Classification turned out to be 3 A450 class in [10]; 1 A450 class in [11]; 1 A450 class in assay [12]; 1 A450 class in [13]; 2 A450 class in assay [14]; 1 A450 class in assay [15]. For the same molecule, the Classification came to 1 A450 class in [16]; 3 A450 class in assay [17]; 1 A450 class in assay [18]; 1 A450 class in assay [19]; 2 A450 class in assay [20]; 2 A450 class in assay [21]. Further, the Classification in assay [22] was 2 A450 class; in assay [23], 2 A450 class; in assay [24] it was 3 A450 class.

B2: serotonin receptor 5HT-2B (peptide)
peptide: DTLLLTENEGDKTEEQVSYV
modifications: not checked
In the case of B2, the dissociation constant Kd is 200 nM in assay [25] and 2000 nM in assay [26]. In addition, the Classification in assay [6] stood at 2 A450 class; in [9] it was 2 A450 class; in [27] it was 1 A450 class; in [10], 1 A450 class; in assay [28], 1 A450 class; in assay [15] it was 5 A450 class. The Classification was found to be 1 A450 class in assay [17]; 1 A450 class in [19]; 5 A450 class in assay [20]; 4 A450 class in assay [29]; 1 A450 class in [30]; 1 A450 class in assay [31].

B3: CLASP-2 8-mer (peptide)
peptide: MTSSSSVV
modifications: not checked
For the molecule B3, the % binding of labelled 20-mer worked out at 80% in assay [32], 85% in assay [33], 82% in assay [34] and 90% in assay [35].
